Biological target: T1, CD70 (human, UniProt P32970 1-193)
T1 sequence (looked up): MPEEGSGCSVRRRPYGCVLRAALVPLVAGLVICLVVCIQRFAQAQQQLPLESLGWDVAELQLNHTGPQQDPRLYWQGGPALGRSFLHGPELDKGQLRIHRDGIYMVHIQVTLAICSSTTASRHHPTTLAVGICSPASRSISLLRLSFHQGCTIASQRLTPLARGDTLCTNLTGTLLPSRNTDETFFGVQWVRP
Assay: cell-based or functional assay

B1: ARGX-110 (cusatuzumab) (antibody, V domains shown)
VH: EVQLVESGGGLVQPGGSLRLSCAASGFTFSVYYMNWVRQAPGKGLEWVSDINNEGGTTYYADSVKGRFTISRDNSKNSLYLQMNSLRAEDTAVYYCARDAGYSNHVPIFDSWGQGTLVTVSS
VL: QAVVTQEPSLTVSPGGTVTLTCGLKSGSVTSDNFPTWYQQTPGQAPRLLIYNTNTRHSGVPDRFSGSILGNKAALTITGAQADDEAEYFCALFISNPSVEFGGGTQLTVLG
With B1 the “IC50 of killing of MOLM-13 AML cells in the presence of CFSE-labelled NK cells (ratio 1:1)” value was 0.68 µg/mL, the “IC50 of killing of MV4-11 AML cells in the presence of CFSE-labelled NK cells (ratio 1:1)” value was 1.2 µg/mL and the “IC50 of killing of NB4 AML cells in the presence of CFSE-labelled NK cells (ratio 1:1)” value was 0.3 µg/mL. For the same binder, the “IC50 of killing of NOMO-1 AML cells in the presence of CFSE-labelled NK cells (ratio 1:1)” value was 0.14 µg/mL.
